The target in data set [1] is T1, mouse leukotriene C4 synthase (mLTC4S) (Mus musculus, UniProt Q60860).
T1 construct: gene Ltc4s; N-terminal hexa-histidine tag
T1 sequence (Q60860 1-150): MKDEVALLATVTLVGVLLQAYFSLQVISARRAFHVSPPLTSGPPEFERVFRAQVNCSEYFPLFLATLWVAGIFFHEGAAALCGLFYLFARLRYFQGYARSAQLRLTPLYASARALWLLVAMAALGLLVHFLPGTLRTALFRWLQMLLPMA
As to the kind of experiment: X-ray crystal structure (co-crystal), […] Å; Km […] also measured. Format: binding.

Data set [2] concerns the target T2, human leukotriene C4 synthase (hLTC4S) (Homo sapiens, UniProt Q16873).
T2 construct: gene LTC4S
T2 sequence (Q16873 1-150): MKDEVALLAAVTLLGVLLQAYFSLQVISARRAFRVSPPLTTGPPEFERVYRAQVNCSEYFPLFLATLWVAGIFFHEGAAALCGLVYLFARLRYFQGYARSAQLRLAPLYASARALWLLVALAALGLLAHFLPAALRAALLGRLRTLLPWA
In words: LTC4 formation by purified enzyme, RP-HPLC; competitive inhibition model fit. Format: biochemical.

The target in data set [3] is T1, mouse leukotriene C4 synthase (mLTC4S). The data set is described as above. The data set is classed as biochemical.
Substrate in data set [4]: CCCCC/C=C\C\C=C/C=C/C=C/[C@@H]1O[C@H]1CCCC(=O)O
As to the kind of experiment: steady-state kinetics (Km) of purified enzyme, RP-HPLC. Format: biochemical, Mus musculus. The note with it: GSH hydrophobic LTA4 binding site; pH 7.8.

Substrate in data set [5]: CCCCC/C=C\C\C=C/C=C/C=C/[C@@H]1O[C@H]1CCCC(=O)O
The data set is described as above. The note with it: GSH hydrophobic LTA4 binding site; pH 7.8. The data set is classed as biochemical, Homo sapiens.

On to `N[C@@H](CCC(=O)N[C@@H](CS)C(=O)NCC(=O)O)C(=O)O` [GSH], for which, in data set [1], the “X-ray crystal structure (co-crystal), 2.7 Å; Km 1.2±0.24 mM also measured” value is reported as “In the structure of the mLTC4S in complex with GSH, the tripeptide has a “U” shaped conformation”.
The Ki is a dissociation constant, usually derived from enzyme kinetics or from competition with a known ligand. A higher Ki goes with a looser hold on the target. Consider `CN(c1ccc(Cl)cc1)c1ccc(C(=O)c2ccc(C(=O)c3ccccc3)c(C(=O)O)c2)nc1` [TK04, 2-Benzoyl-5-{5-[(4-chlorophenyl) (methyl)amino]pyridine-2-carbonyl}benzoic acid], for which the Ki was determined as 41 ± 6.6 nM in data set [2] and 37 ± 6.4 nM in data set [3].

B1: mouse leukotriene C4 synthase (mLTC4S) (Mus musculus) (protein)
chain: T1 sequence (Q60860 1-150)
notes: N-terminal hexa-histidine tag
As a reminder, the Km is the substrate concentration at which the rate is half of its maximum. Usually kcat stands for the maximal rate divided by the concentration of active sites. What is called kcat/Km is the second-order rate constant that governs catalysis at low substrate concentration. For the molecule B1, in data set [4], the Km was 36 ± 8 µM, the kcat came out at 81 ± 7 s⁻¹ and the kcat/Km turned out to be 2.3e+06 ± 260000 M⁻¹ s⁻¹.

B2: human leukotriene C4 synthase (hLTC4S) (Homo sapiens) (protein)
chain: T2 sequence (Q16873 1-150)
As to B2, in data set [5], the Km was found to be 23 ± 3 µM, the kcat was 15.5 ± 0.8 s⁻¹ and the specificity constant (kcat/Km) stood at 600000 ± 57000 M⁻¹ s⁻¹.
